Test [1] concerns the target Trastuzumab (anti-HER2/neu IgG). Briefly: fluorescence quenching.
For test [2] the target is unchanged. Briefly: fluorescence quenching, ligand titrated into 30 nM trastuzumab; apparent Kd.
The target is the same in test [3]. Briefly: fluorescence quenching: ligand titrated into trastuzumab, F/F0 against Ligand (nM).
The target is the same in test [4]. Briefly: method not stated in the legend.
The target is the same in test [5]. Briefly: flow cytometry on HER2-expressing cells, FITC signal of cHBL-tagged trastuzumab.
Test [6] has the same target. Briefly: fluorescence quenching, ligand titrated into 30 nM trastuzumab.

Ends that are not written are not given here.

Usually EC50 (read off the curve) stands for the concentration at which the effect is half-maximal. Higher therefore signals lower potency in that assay.

B1: Trast-Napht-DNP (peptide)
peptide: LLGPYELWELSH
modifications: also: DNP attached via EG2 spacer, 2-naphthaleneacetic acid attached via ethylene glycol spacer, attachment sites not given here
As for B1, the fold increase in observed affinity against the peptide without napht in test [1] was greater than 4 fold. In addition, the Kd in test [2] amounted to 46.6 nM. Also, in test [3], the EC50 (read off the curve) was determined as 50 nM.

B2: Trastuzumab binding peptide … (peptide)
peptide: LLGPYELWELSH
In test [4], B2 had a Kd of 1200 nM.

B3: Trast-cHBL (Peptide-…) (peptide)
peptide: LLGPYELWELSH
modifications: also: 5(6)-carboxyfluorescein via EG2 spacer, EG6x2 spacer on peptide, branching Lys with 2-naphthaleneacetic acid on alpha-amine and EG4-isothiocyanate on epsilon-amine, attachment sites not given here
As to B3, in test [5], the percent of maximum FITC signal at 1 µM cHBL was found to be 50%.

B4: Trast-DNP (Trastuzumab binding peptide tagged with DNP) (peptide)
peptide: LLGPYELWELSH
modifications: not fully specified (C-terminus); also: DNP attached via EG2 spacer, attachment site not given here
On to B4, for which, in test [6], the Kd was 200 nM. The same molecule yielded an EC50 (read off the curve) in test [3] of 200 nM.
